Data: patent US20230357387A1 (published 2023)
Substitutions are numbered along the chain they refer to.

B1: 63A11_H2/_L0 (antibody)
chain 1: not shown
chain 2: DIVMTQSPDSLAVSLGERATINCRASKSVSTSGYSYMHWYQQKPGQPPKLLIYLASNLESGVPDRFSGSGSGTDFTLTISSLQAEDVAVYYCQHSRELPLTFGGGTKVEIKRTVAAPSVFIFPPSDEQLKSGTASVVCLLNNFYPREAKVQWKVDNALQSGNSQESVTEQDSKDSTYSLSSTLTLSKADYEKHKVYACEVTHQGLSSPVTKSFNRGEC
B2: 63A11 H0L1 (antibody)
chain 1: not shown
chain 2: B1 chain 2 with M4L
B3: 63A11 H1/L1 (antibody)
chain 1: not shown
chain 2: B1 chain 2 with M4L
B4: *51B12 H0L2 (antibody)
chain 1: not shown
chain 2: B1 chain 2 with L50F, L98V, L100Y
B5: 63A11 H2/L1 (antibody)
chain 1: not shown
chain 2: B1 chain 2 with M4L
B6: 63A11 H2/L0 (antibody)
chain 1: not shown
chain 2: B1 chain 2
B7: 63A11 H3/L0 (antibody)
chain 1: not shown
chain 2: B1 chain 2
B8: 51B12H0L1 (antibody)
chain 1: not shown
chain 2: B1 chain 2 with M4L, L98V, L100Y
B9: 51B12 H0L3 (antibody)
chain 1: not shown
chain 2: B1 chain 2 with M4L, L50F, L98V, L100Y
B10: 63A11_H2/_L1 (antibody)
chain 1: not shown
chain 2: B1 chain 2 with M4L
B11: 63A11 H0/L0 (antibody)
chain 1: not shown
chain 2: B1 chain 2
B12: 63A11 H1/L0 (antibody)
chain 1: not shown
chain 2: B1 chain 2
B13: 63A11_H0/_L1 (antibody)
chain 1: not shown
chain 2: B1 chain 2 with M4L
B14: 63A11_H3/_L1 (antibody)
chain 1: not shown
chain 2: B1 chain 2 with M4L
B15: 63A11_H1/_H1 (antibody)
chain 1: not shown
chain 2: B1 chain 2 with M4L
B16: 63A11 H0/L1 (antibody)
chain 1: not shown
chain 2: B1 chain 2 with M4L
B17: 51B12 H0L0 (antibody)
chain 1: not shown
chain 2: B1 chain 2 with L98V, L100Y
B18: 63A11_H0/_L0 (antibody)
chain 1: not shown
chain 2: B1 chain 2
B19: 63A11_H3/_L0 (antibody)
chain 1: not shown
chain 2: B1 chain 2
B20: 63A11 H3/L1 (antibody)
chain 1: not shown
chain 2: B1 chain 2 with M4L
B21: 63A11_H1/_L0 (antibody)
chain 1: not shown
chain 2: B1 chain 2
B22: 63A11 parental antibody (antibody, V domains shown)
VH: EVQLVESGGGLVKPGGSRKLSCAASGFTFSDHGMHWVRQAPEKGLEWVAYISSGSSAIFYADTVKGRFTMSRDNAKNTLFLQMTSLRSEDTAMYFCARWTNLYAMDYWGQGTSVTVSS
VL: DIVLTQSPASLAVSLGQRATISCRASKSVSTSGYSYMHWYQQKPGQPPKLLIYLASNLESGVPARFSGSGSGTDFTLNIHPVEEEDAATYYCQHSRELPLTFGAGTKLELKR

Key:
[1] = biological target: T1, human ZIP12 extracellular domain expressed as a GST fusion protein (UniProt Q504Y0 1-202); test: SPR; replicate 1
[2] = biological target: T1, human ZIP12 extracellular domain …; test: SPR; replicate 2
[3] = biological target: T1, human ZIP12 extracellular domain …; test: SPR; summary value
[4] = biological target: T1, human ZIP12 extracellular domain …; test: ELISA
[5] = biological target: human ZIP12 on human ZIP12 expressing transfectant cells (UniProt Q504Y0 1-691); test: flow cytometry
[6] = biological target: T1, human ZIP12 extracellular domain …; test: SPR; replicate 1; remark: listed apart in the source
[7] = biological target: T1, human ZIP12 extracellular domain …; test: SPR; replicate 2; remark: listed apart in the source

Binder | Kd [1] [nM] | Kd [2] [nM] | EC50 [4] [ng/mL] | EC50 [5] [µg/mL] | also measured
B1 | 2.1 | 2.04 | – | – | –
B2 | – | – | – | – | Kd [3]: 0.9 nM
B3 | – | – | 1.5 | 0.515 | –
B4 | – | – | – | – | Kd [6]: 0.706 nM; Kd [7]: 2.16 nM
B5 | – | – | 1.6 | 0.586 | –
B6 | – | – | 1.8 | 0.411 | –
B7 | – | – | 2 | 0.583 | –
B8 | – | – | – | – | Kd [6]: 4.17 nM; Kd [7]: 1.83 nM
B9 | – | – | – | – | Kd [6]: 0.605 nM; Kd [7]: 0.785 nM; Kd [3]: 0.7 nM
B10 | 0.97 | 1.14 | – | – | –
B11 | – | – | 1.8 | 0.778 | –
B12 | – | – | 1.8 | 0.508 | –
B13 | 0.888 | 0.889 | – | – | –
B14 | 1.28 | 1.41 | – | – | –
B15 | 1.82 | 1.96 | – | – | –
B16 | – | – | 1.6 | 0.338 | –
B17 | – | – | – | – | Kd [6]: 1.39 nM; Kd [7]: 1.39 nM
B18 | 2.38 | 1.95 | – | – | –
B19 | 1.23 | 1.62 | – | – | –
B20 | – | – | 1.9 | 0.5 | –
B21 | 1.32 | 1.62 | – | – | –
B22 | 0.757 | 0.757 | 1.7 | 0.233 | –
